Measurements published in the supplement of paper PMC7877785.
± gives the uncertainty stated by the source.

Test: self-splicing fitness, log relative to wild type (ln ratio); higher = more splicing; Tetrahymena group I intron in knt gene, E. coli kanamycin selection, DiMSum; sequences stand for … in CUCUCU…GGAGGGAAAAGUUAUCAGGCAUGCACCUGGUAGCUAGUCUUUAAACCAAUAGAUUGCAUCGGUUUAAAAGGCAAGACCGUCAAAUUGCGGGAAAGGGGUCAACAGCCGUUCAGUACCAAGUCUCAGGGGAAACUUUGAGAUGGCCUUGCAAAGGGUAUGGUAAUAAGCUGACGGACAUGGUCCUAACCACGCAGCCAAGUCCUAAGUCAACAGAUCUUCUGUUGAUAUGGAUGCAGUUCACAGACUAAAUGUCGGUCGGGGAAGAUGUAUUCUUCUCAUAAGAUAUAGUCGGACCUCUCCUUAAUGGGAGCUAGCGGAUGAAGUGAUGCAACACUGGAGCCGCUGGGAACUAAUUUGUAUGCGAAAGUAUAUUGAUUAGUUUUGGAGUACUCGUGGUCG
Procedure, shortened: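 Library with all eight P1ex-region intron nucleotides randomised, intron inside the knt kanamycin-resistance gene on pET-22b(+), in E. coli BL21(DE3). Cells grew overnight at 37°C or 30°C on LB agar with or without 25 μg/mL kanamycin (plus 100 μg/mL carbenicillin, 50 μM IPTG, 0.2% rhamnose), in six replicate transformations. Pooled colonies were amplicon-sequenced on Illumina HiSeq 2500. DiMSum fitness is the error-weighted combination of wild-type-normalised replicate fold changes, kanamycin versus none.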

Sequence | self-splicing fitness (ln) (30 °C) | self-splicing fitness (ln) (37 °C)
CCUAAGCAAUAUUACGCAAC | -3.08 ± 0.26 | -3.03 ± 0.4
CCUAAGCAAUAUUACGCGCA | -3.25 ± 0.24 | -2.2 ± 0.19
CCUAAGCAAUAUUACGCGGU | -2.54 ± 0.13 | -3.06 ± 0.18
CCUAAGCAAUAUUACGCUAU | -4.71 ± 0.39 | -2.35 ± 0.24
CCUAAGCAAUAUUACGGAGA |  | -1.46 ± 0.22
CCUAAGCAAUAUUACGGAGG | -4.42 ± 0.29 | -2.71 ± 0.31
CCUAAGCAAUAUUACGGCAA | -3.72 ± 0.21 | -2.91 ± 0.23
CCUAAGCAAUAUUACGGCCU | -1.9 ± 0.16 | -1.84 ± 0.37
CCUAAGCAAUAUUACGGGCC | -3.18 ± 0.27 | -2.12 ± 0.22
CCUAAGCAAUAUUACGGGGG | -3.51 ± 0.2 | -2.5 ± 0.24
CCUAAGCAAUAUUACGGGUC | -4.66 ± 0.36 | -3.25 ± 0.22
CCUAAGCAAUAUUACGUCUA | -3.9 ± 0.24 | -3.48 ± 0.36
CCUAAGCAAUAUUACGUCUU | -3.47 ± 0.18 | -2.42 ± 0.22
CCUAAGCAAUAUUACGUGUA | -3.61 ± 0.15 | -1.89 ± 0.14
CCUAAGCAAUAUUACGUUUA | -3.45 ± 0.18 | -3.14 ± 0.2
CCUCAGCAAUAUUACGAAAG | -1.51 ± 0.069 | -0.45 ± 0.087
CCUCAGCAAUAUUACGACCA | -2.93 ± 0.34 | -1.99 ± 0.46
CCUCAGCAAUAUUACGACCU | -2.59 ± 0.16 | -2.59 ± 0.29
CCUCAGCAAUAUUACGAUCA | -3.65 ± 0.22 | -2.96 ± 0.26
CCUCAGCAAUAUUACGCAAA |  | -2.46 ± 0.3
CCUCAGCAAUAUUACGCAUC | -2.68 ± 0.18 | -2.85 ± 0.41
CCUCAGCAAUAUUACGCAUG | -1.83 ± 0.092 | -0.467 ± 0.086
CCUCAGCAAUAUUACGCGCU | -2 ± 0.13 | -2.79 ± 0.25
CCUCAGCAAUAUUACGCGGC | -3.25 ± 0.2 | -2.5 ± 0.2
CCUCAGCAAUAUUACGCGUG | -1.85 ± 0.081 | -0.545 ± 0.072

Sequence | self-splicing fitness (ln) (30 °C) | self-splicing fitness (ln) (37 °C)
CCUCAGCAAUAUUACGGAAA | -3.7 ± 0.23 | -1.63 ± 0.17
CCUCAGCAAUAUUACGGACG | -0.587 ± 0.064 | 0.272 ± 0.081
CCUCAGCAAUAUUACGGACU | -3.93 ± 0.33 | -1.79 ± 0.24
CCUCAGCAAUAUUACGGCAA | -3.12 ± 0.24 | -2.41 ± 0.23
CCUCAGCAAUAUUACGGGAC | -3.63 ± 0.23 | -1.98 ± 0.26
CCUCAGCAAUAUUACGGGCA |  | -2.2 ± 0.24
CCUCAGCAAUAUUACGGGUU | -4.07 ± 0.21 | -2.02 ± 0.15
CCUCAGCAAUAUUACGUAAA | -3.87 ± 0.24 | -3.05 ± 0.29
CCUCAGCAAUAUUACGUAUC | -0.834 ± 0.13 | -3.05 ± 0.26
CCUCAGCAAUAUUACGUUAA | -2.89 ± 0.17 | -2.96 ± 0.23
CCUCAGCAAUAUUACGUUCC | -3.09 ± 0.15 | -2.42 ± 0.33
CCUGAGCAAUAUUACGAAAU | -3.15 ± 0.29 | -0.975 ± 0.19
CCUGAGCAAUAUUACGACGG | -3.06 ± 0.25 | -2.59 ± 0.48
CCUGAGCAAUAUUACGACUC | -1.44 ± 0.36 | -1.6 ± 0.49
CCUGAGCAAUAUUACGCAGA | -3.44 ± 0.23 | -1.96 ± 0.15
CCUGAGCAAUAUUACGCAUC | -3.39 ± 0.44 | 
CCUGAGCAAUAUUACGCCAC | -3.2 ± 0.45 | -1.35 ± 0.36
CCUGAGCAAUAUUACGCCAG | -2.75 ± 0.41 | -1.62 ± 0.32
CCUGAGCAAUAUUACGCCGG |  | -1.71 ± 0.39
CCUGAGCAAUAUUACGCGAG | -4.35 ± 0.42 | -2.63 ± 0.28
CCUGAGCAAUAUUACGCGUU | -3.53 ± 0.29 | -3.12 ± 0.35
CCUGAGCAAUAUUACGCUUC | -3.16 ± 0.48 | -2.4 ± 0.41
CCUGAGCAAUAUUACGGAAG | -2.82 ± 0.15 | -1.29 ± 0.12
CCUGAGCAAUAUUACGGACU | -1.55 ± 0.13 | -3.3 ± 0.32
